B1: SHARP residues 2776-2833 (domain or fragment)
chain: RASANENSRFHPGSMPVIDDRPADAGSGAGLRVNTSEGVVLLSYSGQKTEGPQRISAK
B2: Notch1 RAM domain peptide (human Notch1 residues 1754-1781) (peptide)
peptide: VLLSRKRRRQHGQLWFPEGFKVSEASKK

Columns and labels:
Experiment in all cases: ITC
[1] = target: Drosophila Su(H) (98-523) WT (Drosophila) (UniProt P28159)
mouse Rbpj (53-474) WT = mouse Rbpj (53-474) WT (mouse, UniProt P31266 53-474)
mouse Rbpj (53-474) E89G = mouse Rbpj (53-474) E89G (mouse, UniProt P31266 53-474, E89G)
mouse Rbpj (53-474) E89G, sequence (P31266 53-474 E89G): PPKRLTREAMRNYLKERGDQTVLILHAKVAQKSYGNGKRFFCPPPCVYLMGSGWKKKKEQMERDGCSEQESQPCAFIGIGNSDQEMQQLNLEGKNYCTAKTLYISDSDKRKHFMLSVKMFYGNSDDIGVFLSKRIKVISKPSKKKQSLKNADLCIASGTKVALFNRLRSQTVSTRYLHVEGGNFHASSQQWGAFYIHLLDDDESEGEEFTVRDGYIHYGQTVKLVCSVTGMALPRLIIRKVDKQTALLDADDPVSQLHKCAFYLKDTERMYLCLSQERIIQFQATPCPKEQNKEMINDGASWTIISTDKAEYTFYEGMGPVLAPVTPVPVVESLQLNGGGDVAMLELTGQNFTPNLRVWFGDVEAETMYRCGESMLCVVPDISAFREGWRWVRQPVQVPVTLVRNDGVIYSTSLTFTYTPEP

[2] = target: mouse Rbpj (53-474) K195E (mouse, UniProt P31266 53-474, K195E)
mouse Rbpj (53-474) K195E, sequence (P31266 53-474 K195E): as the sequence (P31266 53-474 E89G) above, with G37E, K143E counted along it

mouse Rbpj (53-474) WT, sequence (P31266 53-474): as the sequence (P31266 53-474 E89G) above, with G37E counted along it

| Kd [1] | Kd (mouse Rbpj (53-474) WT) | Kd (mouse Rbpj (53-474) E89G) | Kd [2] | Molecule |
| --- | --- | --- | --- | --- |
| 187 nM |  |  |  | Drosophila Notch RAM domain peptide (residues 1763-1790) |
|  | ~5 nM | ~5 nM | 21 nM | B1 |
|  | ~20 nM | ~20 nM | ~20 nM | B2 |
